Measured values as given in patent publication US20070218516A1 (UNITED STATES OF AMERICA AS REPRESENTED BY THE SERCRETARY …, published 2007).

B1: rHu-BF5-A6 (antibody, V domains shown)
VH: EVQLQQSGAELVKPGASVKLSCTASGFNIKDTFMHWVKQRPEQGLEWIGRIDPANGNTEYDPKFQGKATITADTSSNTVNLQLSSLTSEDTAVYYCASGGELGFPYWGQGTLVTVSA
VL: DIQMTQSPASLSASVGETVTITCRASGNIHNYLAWYQQKQGKSPQLLVYNAKTLADGVPSRFSGSGSGTQYSLKINSLQPEDFGSYYCQHFWSTPWTFGGG
B2: rHu-BF5-B1 (antibody, V domains shown)
VH: B1 VH
VL: B1 VL

Assays:
[1] = target: T1, botulinum neurotoxin serotype A (BoNT/A) (Clostridium botulinum, UniProt P0DPI0 2-1296); test: direct ELISA, […], antibody at 1.25 ug/ml
T1 sequence (P0DPI0 2-1296 limits assumed): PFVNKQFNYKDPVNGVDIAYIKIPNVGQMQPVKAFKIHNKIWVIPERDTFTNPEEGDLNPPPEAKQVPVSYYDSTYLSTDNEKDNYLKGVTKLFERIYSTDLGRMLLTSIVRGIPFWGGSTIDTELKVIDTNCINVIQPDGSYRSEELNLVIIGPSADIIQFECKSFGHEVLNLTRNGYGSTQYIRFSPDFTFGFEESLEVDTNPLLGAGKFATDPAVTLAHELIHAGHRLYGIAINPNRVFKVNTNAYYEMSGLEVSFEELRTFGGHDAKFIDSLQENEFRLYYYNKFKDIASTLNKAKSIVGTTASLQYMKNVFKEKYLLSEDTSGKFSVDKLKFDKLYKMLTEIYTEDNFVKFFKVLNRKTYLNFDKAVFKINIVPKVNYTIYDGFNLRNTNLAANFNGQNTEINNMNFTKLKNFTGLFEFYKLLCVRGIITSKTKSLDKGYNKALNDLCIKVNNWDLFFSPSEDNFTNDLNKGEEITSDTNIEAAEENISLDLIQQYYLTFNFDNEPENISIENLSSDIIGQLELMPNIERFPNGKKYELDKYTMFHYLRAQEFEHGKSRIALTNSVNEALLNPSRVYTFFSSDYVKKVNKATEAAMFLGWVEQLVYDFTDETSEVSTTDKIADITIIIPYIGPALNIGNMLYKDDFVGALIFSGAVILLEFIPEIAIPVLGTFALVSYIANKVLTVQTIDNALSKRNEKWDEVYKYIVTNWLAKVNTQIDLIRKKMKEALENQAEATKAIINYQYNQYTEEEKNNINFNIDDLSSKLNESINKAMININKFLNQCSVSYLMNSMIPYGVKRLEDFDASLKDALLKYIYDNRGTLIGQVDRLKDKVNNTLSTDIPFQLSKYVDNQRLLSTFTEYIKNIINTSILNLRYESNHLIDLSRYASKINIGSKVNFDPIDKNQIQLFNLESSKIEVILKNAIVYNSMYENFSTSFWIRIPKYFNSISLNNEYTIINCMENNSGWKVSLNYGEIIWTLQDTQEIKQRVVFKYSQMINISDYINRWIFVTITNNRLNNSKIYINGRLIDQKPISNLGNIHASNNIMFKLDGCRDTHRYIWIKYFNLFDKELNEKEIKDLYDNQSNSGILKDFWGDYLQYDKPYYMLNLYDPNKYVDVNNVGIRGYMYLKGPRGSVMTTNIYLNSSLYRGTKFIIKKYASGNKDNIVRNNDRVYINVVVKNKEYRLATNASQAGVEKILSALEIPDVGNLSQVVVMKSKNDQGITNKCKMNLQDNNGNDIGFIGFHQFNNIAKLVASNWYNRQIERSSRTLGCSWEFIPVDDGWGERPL

[2] = target: T2, botulinum neurotoxin serotype B (BoNT/B) (Clostridium botulinum, UniProt P10844 2-1291); test: direct ELISA, […], antibody at 1.25 ug/ml
T2 sequence: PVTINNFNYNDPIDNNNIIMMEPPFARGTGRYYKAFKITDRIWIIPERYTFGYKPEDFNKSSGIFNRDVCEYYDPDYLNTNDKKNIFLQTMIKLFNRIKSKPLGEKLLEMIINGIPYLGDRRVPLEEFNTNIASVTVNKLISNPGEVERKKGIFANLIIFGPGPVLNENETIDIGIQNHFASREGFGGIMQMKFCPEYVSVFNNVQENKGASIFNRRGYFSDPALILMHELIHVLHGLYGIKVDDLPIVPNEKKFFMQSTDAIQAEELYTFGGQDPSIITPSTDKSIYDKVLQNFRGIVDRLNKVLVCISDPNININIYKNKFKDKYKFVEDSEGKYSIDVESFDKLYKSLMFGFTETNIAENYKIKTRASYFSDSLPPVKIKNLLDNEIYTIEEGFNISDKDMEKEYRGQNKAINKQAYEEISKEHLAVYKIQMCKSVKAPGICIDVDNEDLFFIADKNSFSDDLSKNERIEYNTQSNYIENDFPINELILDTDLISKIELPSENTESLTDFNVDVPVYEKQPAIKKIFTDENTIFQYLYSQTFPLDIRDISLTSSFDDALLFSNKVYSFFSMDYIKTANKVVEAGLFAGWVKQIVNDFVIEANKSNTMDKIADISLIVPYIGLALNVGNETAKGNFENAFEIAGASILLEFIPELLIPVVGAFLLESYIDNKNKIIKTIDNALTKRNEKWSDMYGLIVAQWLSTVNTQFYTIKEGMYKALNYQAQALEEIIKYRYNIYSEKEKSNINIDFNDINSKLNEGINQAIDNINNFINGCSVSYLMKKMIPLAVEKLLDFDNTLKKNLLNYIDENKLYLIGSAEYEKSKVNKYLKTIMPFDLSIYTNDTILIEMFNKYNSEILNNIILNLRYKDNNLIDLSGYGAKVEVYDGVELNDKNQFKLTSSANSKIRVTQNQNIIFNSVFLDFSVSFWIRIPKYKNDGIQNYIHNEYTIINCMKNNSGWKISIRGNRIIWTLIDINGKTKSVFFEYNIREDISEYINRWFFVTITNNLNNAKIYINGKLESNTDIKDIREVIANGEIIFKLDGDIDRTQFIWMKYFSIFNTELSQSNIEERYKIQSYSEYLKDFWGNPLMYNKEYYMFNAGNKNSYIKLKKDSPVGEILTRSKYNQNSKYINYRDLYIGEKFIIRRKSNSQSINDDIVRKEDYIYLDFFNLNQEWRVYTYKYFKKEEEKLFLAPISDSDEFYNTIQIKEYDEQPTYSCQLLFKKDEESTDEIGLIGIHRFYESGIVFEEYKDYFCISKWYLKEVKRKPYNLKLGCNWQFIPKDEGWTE

[3] = target: T1, botulinum neurotoxin serotype A (BoNT/A); test: capture ELISA, antibody coated at 5.0 ug/ml
[4] = target: T2, botulinum neurotoxin serotype B (BoNT/B); test: capture ELISA, antibody coated at 5.0 ug/ml
[5] = target: T1, botulinum neurotoxin serotype A (BoNT/A); test: capture ELISA titration, antibody at 5.0 ug/ml
[6] = target: T2, botulinum neurotoxin serotype B (BoNT/B); test: capture ELISA titration, antibody at 5.0 ug/ml

Row | Binder | detection limit [1] [ng] | detection limit [2] [ng] | detection limit [3] [ng] | detection limit [4] [ng] | lowest amount detected [5] [ng] | lowest amount detected [6] [ng]
1 | B1 | 9.4 | 11.8 | 0.29 | 0.35 | 0.3 | 0.4
2 | B2 | 9.4 | 11.8 | 0.29 | 0.35 | 0.3 | 0.4
